Experimental data taken from PMC1885638 (Nucleic Acids Research, 2007).

B1: his-Hus1 (individual subunit) (natural protein, human, UniProt O60921 1-280, looked up)
chain: MKFRAKIVDGACLNHFTRISNMIAKLAKTCTLRISPDKLNFILCDKLANGGVSMWCELEQENFFNEFQMEGVSAENNEIYLELTSENLSRALKTAQNARALKIKLTNKHFPCLTVSVELLSMSSSSRIVTHDIPIKVIPRKLWKDLQEPVVPDPDVSIYLPVLKTMKSVVEKMKNISNHLVIEANLDGELNLKIETELVCVTTHFKDLGNPPLASESTHEDRNVEHMAEVHIDIRKLLQFLAGQQVNPTKALCNIVNNKMVHFDLLHEDVSLQYFIPALS
B2: his-Rad1 (individual subunit) (natural protein, human, UniProt O60671 1-282, looked up)
chain: MPLLTQQIQDEDDQYSLVASLDNVRNLSTILKAIHFREHATCFATKNGIKVTVENAKCVQANAFIQAGIFQEFKVQEESVTFRINLTVLLDCLSIFGSSPMPGTLTALRMCYQGYGYPLMLFLEEGGVVTVCKINTQEPEETLDFDFCSTNVINKIILQSEGLREAFSELDMTSEVLQITMSPDKPYFRLSTFGNAGSSHLDYPKDSDLMEAFHCNQTQVNRYKISLLKPSTKALVLSCKVSIRTDNRGFLSLQYMIRNEDGQICFVEYYCCPDEEVPESES

Target: Human AP endonuclease 1 (human, UniProt P27695 1-318)
Assay: pull-down

Human AP endonuclease 1, sequence (P27695 whole entry): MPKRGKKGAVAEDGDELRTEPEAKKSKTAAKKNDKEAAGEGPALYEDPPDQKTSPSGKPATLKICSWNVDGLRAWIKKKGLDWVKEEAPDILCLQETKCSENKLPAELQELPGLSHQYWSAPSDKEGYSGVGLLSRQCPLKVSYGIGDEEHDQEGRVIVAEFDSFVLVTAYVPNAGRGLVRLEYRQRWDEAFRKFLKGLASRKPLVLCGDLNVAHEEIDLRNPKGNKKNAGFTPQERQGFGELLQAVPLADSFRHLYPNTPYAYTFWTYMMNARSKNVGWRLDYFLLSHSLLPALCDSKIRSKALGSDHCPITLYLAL

Row | Binder | binding result
1 | B1 | binds
2 | B2 | binds
